Data: IntAct's records for PubMed 11743162

B1: Protein BZZ1 (Saccharomyces cerevisiae), P38822 (parent)
chain: MSADLSIGNEIKDSFKETHKWVQNNLKWLKDIEQFYRERAKLEKDYSERLSRLSAEYFNKKSSTSVPISVGDTPTTTPGSIEAAGVVAWNEILSQTDMISKDHDQLSTDFENHVANQLSGLFTKLDMTLSKINGFNNDMVNKKDNIYHELEKAKKDYDEACSTMEMARNRYTKASNDRNKKKLDEKEMEMNKCKNEYLIKINQANRTKDKYYFQDVPEVLDLLQDVNEAKTLFLNDLWLKAASVENDLGANVSKRLQAANSVVKQNKPSLNTAIFIKHNLKNWKEPQDFVYKPSPVWHDDEKFAVPSSLEVEDLRIKLAKAENDYNSLQDKTQNELSKLSTLNKIKHEMKTNEDNINATKFYDTLKEYLNVVSPFTSHETLKLQAEVQIESIQNNVPEEYDLSTDNIDLSKTKKKSGIFSKFKHNILNVDSKPSSGGSTGNGNGGPLHITSLFNTSRRTRLGSAPNNAGEDSDNNSIRTTSTNNTKKTTQNSSDDGKNKVLYAYVQKDDDEITITPGDKISLVARDTGSGWTKINNDTTGETGLVPTTYIRISSAATVKANDRGPAPEVPPPRRSTLPVRTMEAIYAYEAQGDDEISIDPGDIITVIRGDDGSGWTYGECDGLKGLFPTSYCK
partner: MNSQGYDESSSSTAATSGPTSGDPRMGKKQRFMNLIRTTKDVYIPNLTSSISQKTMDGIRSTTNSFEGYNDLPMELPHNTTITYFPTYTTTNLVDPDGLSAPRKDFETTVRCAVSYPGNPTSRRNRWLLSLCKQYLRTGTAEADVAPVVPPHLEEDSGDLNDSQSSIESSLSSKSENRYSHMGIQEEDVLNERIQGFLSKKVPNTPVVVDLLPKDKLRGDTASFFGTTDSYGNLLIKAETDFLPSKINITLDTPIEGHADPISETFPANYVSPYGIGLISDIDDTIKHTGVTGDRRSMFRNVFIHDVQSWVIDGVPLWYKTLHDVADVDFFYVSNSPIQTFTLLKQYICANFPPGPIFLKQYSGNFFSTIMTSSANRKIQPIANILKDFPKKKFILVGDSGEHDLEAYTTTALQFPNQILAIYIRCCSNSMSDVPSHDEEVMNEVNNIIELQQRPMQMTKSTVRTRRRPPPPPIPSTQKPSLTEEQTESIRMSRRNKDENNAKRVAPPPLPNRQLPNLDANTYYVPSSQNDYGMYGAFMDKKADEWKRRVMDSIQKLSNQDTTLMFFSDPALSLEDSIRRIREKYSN
B2: High osmolarity signaling protein SHO1 (Saccharomyces cerevisiae), P40073 (parent)
chain: MSISSKIRPTPRKPSRMATDHSFKMKKFYADPFAISSISLAIVSWVIAIGGSISSASTNESFPRFTWWGIVYQFLIICSLMLFYCFDLVDHYRIFITTSIAVAFVYNTNSATNLVYADGPKKAAASAGVILLSIINLIWILYYGGDNASPTNRWIDSFSIKGIRPSPLENSLHRARRRGNRNTTPYQNNVYNDAIRDSGYATQFDGYPQQQPSHTNYVSSTALAGFENTQPNTSEAVNLHLNTLQQRINSASNAKETNDNSNNQTNTNIGNTFDTDFSNGNTETTMGDTLGLYSDIGDDNFIYKAKALYPYDADDDDAYEISFEQNEILQVSDIEGRWWKARRANGETGIIPSNYVQLIDGPEEMHR
B3: Protein BZZ1 (Saccharomyces cerevisiae), P38822 (parent)
chain: B1 chain

Variants of: B1
Details: with app1_yeast APP1, P53933

Row | effect of a mutation on the interaction | Variant
1 | decreasing interaction | W531S;W615S

Variants of: B2
Details: with las17_yeast LAS17, Q12446
Target sequence in this assay (Q12446 whole entry): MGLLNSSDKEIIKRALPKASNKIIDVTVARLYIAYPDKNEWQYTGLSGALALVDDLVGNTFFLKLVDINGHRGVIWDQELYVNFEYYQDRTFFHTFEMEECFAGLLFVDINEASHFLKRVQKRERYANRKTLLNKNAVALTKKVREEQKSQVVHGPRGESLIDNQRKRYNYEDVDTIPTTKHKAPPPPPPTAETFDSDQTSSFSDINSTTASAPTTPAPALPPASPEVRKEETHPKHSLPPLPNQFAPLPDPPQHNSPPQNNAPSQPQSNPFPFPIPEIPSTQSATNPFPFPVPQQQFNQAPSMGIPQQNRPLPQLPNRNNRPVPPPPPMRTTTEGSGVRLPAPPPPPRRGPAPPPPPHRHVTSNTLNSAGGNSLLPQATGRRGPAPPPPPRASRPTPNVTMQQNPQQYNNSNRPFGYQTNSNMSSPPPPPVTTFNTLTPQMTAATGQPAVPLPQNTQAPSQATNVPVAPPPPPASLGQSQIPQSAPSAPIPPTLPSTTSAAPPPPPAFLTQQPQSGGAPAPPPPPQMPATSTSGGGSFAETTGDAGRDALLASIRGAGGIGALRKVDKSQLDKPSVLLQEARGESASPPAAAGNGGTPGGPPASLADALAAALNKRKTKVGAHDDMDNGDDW

Row | effect of a mutation on the interaction | Variant
2 | decreasing interaction | P352A

Variants of: B3
Details: with las17_yeast LAS17, Q12446
Target sequence in this assay (Q12446 whole entry): as above

Row | effect of a mutation on the interaction | Variant
3 | decreasing interaction | W531S
4 | decreasing interaction | W615S
5 | decreasing interaction | W531S;W615S
